Assay results reported in patent publication US20150093787.

The sequences below were run against Int-His6 (bacteriophage lambda integrase, with IHF; BP Clonase) (Bacteriophage lambda) (UniProt P03700+P0A6X7+P0A6Y1) (assay: cell_activity). Conditions: degenerate pool vs attB1-LacZa-attB2, overnight.
UniProt P03700, sequence (P03700 whole entry, chain 1 of 3): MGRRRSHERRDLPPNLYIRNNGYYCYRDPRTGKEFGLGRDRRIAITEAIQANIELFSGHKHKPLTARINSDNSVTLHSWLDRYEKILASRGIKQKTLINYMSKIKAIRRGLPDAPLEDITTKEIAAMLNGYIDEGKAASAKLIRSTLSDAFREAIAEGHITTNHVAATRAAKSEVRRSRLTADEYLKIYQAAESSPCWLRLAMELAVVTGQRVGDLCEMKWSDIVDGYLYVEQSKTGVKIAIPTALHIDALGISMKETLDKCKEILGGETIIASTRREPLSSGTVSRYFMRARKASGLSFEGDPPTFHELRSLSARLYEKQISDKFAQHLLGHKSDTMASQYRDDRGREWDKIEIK
UniProt P03700, sequence (P0A6X7 2-99, chain 2 of 3): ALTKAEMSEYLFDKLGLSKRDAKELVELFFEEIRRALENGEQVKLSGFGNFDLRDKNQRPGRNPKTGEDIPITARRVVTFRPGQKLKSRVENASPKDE
UniProt P03700, sequence (P0A6Y1 whole entry, chain 3 of 3): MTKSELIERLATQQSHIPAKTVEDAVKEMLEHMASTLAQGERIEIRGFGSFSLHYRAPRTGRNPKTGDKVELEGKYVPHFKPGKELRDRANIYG
Sequence “GGGGACAAGTTTGTACAAAAAAGCNNNNN (double strand) [attB1n21-25]” has a binding signal of 14%.
“GGGGACAAGTTTGTACAAANNNNNAGGCT (double strand) [attB1n16-20]” gave a binding signal of 1.5%.
Sequence “GGGGACCACTTTGTACAAGAAAGCNNNNN (double strand) [attB2n21-25]” has a binding signal of 21%.
In the case of “GGGGACCACTTTGTACAAGNNNNNTGGGT (double strand) [attB2n16-20]”, the binding signal is reported as 0.9%.
